Test results from publication PMC8835725, “Cryo‐EM structure of the full‐length Lon protease from Thermus thermophilus” (Febs Letters, 2021).
Where “and” joins values, the source holds several entries; their conditions need not be identical. Identical values can stand only once.

B1: Lon protease from Escherichia coli, full length (enzyme, UniProt P0A9M0 1-784, looked up)
chain: MNPERSERIEIPVLPLRDVVVYPHMVIPLFVGREKSIRCLEAAMDHDKKIMLVAQKEASTDEPGVNDLFTVGTVASILQMLKLPDGTVKVLVEGLQRARISALSDNGEHFSAKAEYLESPTIDEREQEVLVRTAISQFEGYIKLNKKIPPEVLTSLNSIDDPARLADTIAAHMPLKLADKQSVLEMSDVNERLEYLMAMMESEIDLLQVEKRIRNRVKKQMEKSQREYYLNEQMKAIQKELGEMDDAPDENEALKRKIDAAKMPKEAKEKAEAELQKLKMMSPMSAEATVVRGYIDWMVQVPWNARSKVKKDLRQAQEILDTDHYGLERVKDRILEYLAVQSRVNKIKGPILCLVGPPGVGKTSLGQSIAKATGRKYVRMALGGVRDEAEIRGHRRTYIGSMPGKLIQKMAKVGVKNPLFLLDEIDKMSSDMRGDPASALLEVLDPEQNVAFSDHYLEVDYDLSDVMFVATSNSMNIPAPLLDRMEVIRLSGYTEDEKLNIAKRHLLPKQIERNALKKGELTVDDSAIIGIIRYYTREAGVRGLEREISKLCRKAVKQLLLDKSLKHIEINGDNLHDYLGVQRFDYGRADNENRVGQVTGLAWTEVGGDLLTIETACVPGKGKLTYTGSLGEVMQESIQAALTVVRARAEKLGINPDFYEKRDIHVHVPEGATPKDGPSAGIAMCTALVSCLTGNPVRADVAMTGEITLRGQVLPIGGLKEKLLAAHRGGIKTVLIPFENKRDLEEIPDNVIADLDIHPVKRIEEVLTLALQNEPSGMQVVTAK
notes: Lon protease, Escherichia coli, UniProt P0A9M0, full length, untagged after SUMO cleavage; Seen as a mixture of hexamers and dodecamers on EM grids; also called EcLon; EcLon^FL; source: E. coli C41(DE3), purified (Ni-NTA, SUMO tag cleaved with SENP protease, Superose 6 Increase SEC); not shown: His6, N-terminal, cleaved; SUMO, N-terminal, cleaved
B2: Lon protease from Thermus thermophilus (enzyme, UniProt Q72KS4 1-795, looked up)
chain: MKDFLRLELPVLPLRNTVVLPHTTTGVDVGRLKSKRAVEEALSADRLLFLVTQKDPEVDDPAPEDLYAVGTLAVVKQAMRLPDGTLQVMVEARSRARLLSYVAAPYLRAVGEAIPEPPLKDPELARVLVNEVQEAFERYLQNHKTLRLDRYQQEAVKSTRDPAILADLVAHHATWTLEEKQTILETPEVEERLKRVLALLLRDLERFELDKKIAARVKEQMDQNQREYYLREQMKAIQKELGGGEDFLTEIEELRERIEKKGMPEPVKEKALKELKRLERMQPGSPEATVSRTYLDWLLEVPWTEADPEVLDISVTKRVLDEDHYGLKEVKERILEYLAVRQLTQGKEVKGHAPILCFVGPPGVGKTSLGKSIARSMNRRFHRISLGGVRDEAEIRGHRRTYIGALPGKIIQGMKQVGVVNPVFLLDEIDKLSSDWRGDPAAALLEVLDPEQNHTFTDHYLDVPYDLSKVFFITTANTLSTIPRPLLDRMEVIEIPGYTLHEKRAIARYFRWPFQVKEAGLEGRLEITDRAIERIVQEYTREAGVRNLDRELSKVARKAAKDYLEKPWEGVRVVDAEDLEAYLGVPKYRPDRAEKEPQVGAAQGLAWTPYGGTLLTIEAVAVPGTGKVNLTGNLGEVMKESAHAALTYLRAHREEWGLPEGFHKDYDLHIHVPEGATPKDGPSAGITIATALASALTGRPVRMDIAMTGEITLRGRVLPIGGVKEKLLAAHQAGIHRVILPKENAAELKEVPEEILKDLEIHFVEEVGEVLKLLLLPPPPPPAVQPDRPQPGVGA
notes: Lon protease, Thermus thermophilus, UniProt Q72KS4, full length, untagged and unmodified after SUMO cleavage; Homo-hexamer; cryo-EM sample in buffer A with 1 mM AMP-PNP and 5 mM MgCl2; also called TtLon; Lon from T. thermophilus; source: E. coli C41(DE3), purified (Ni-NTA, SUMO tag cleaved with SENP protease, Superose 6 Increase SEC); not shown: His6, N-terminal, cleaved; SUMO, N-terminal, cleaved
B3: N-terminally truncated mutant EcLon^253-784 (domain or fragment, Escherichia coli, UniProt P0A9M0 253-784, looked up)
chain: ALKRKIDAAKMPKEAKEKAEAELQKLKMMSPMSAEATVVRGYIDWMVQVPWNARSKVKKDLRQAQEILDTDHYGLERVKDRILEYLAVQSRVNKIKGPILCLVGPPGVGKTSLGQSIAKATGRKYVRMALGGVRDEAEIRGHRRTYIGSMPGKLIQKMAKVGVKNPLFLLDEIDKMSSDMRGDPASALLEVLDPEQNVAFSDHYLEVDYDLSDVMFVATSNSMNIPAPLLDRMEVIRLSGYTEDEKLNIAKRHLLPKQIERNALKKGELTVDDSAIIGIIRYYTREAGVRGLEREISKLCRKAVKQLLLDKSLKHIEINGDNLHDYLGVQRFDYGRADNENRVGQVTGLAWTEVGGDLLTIETACVPGKGKLTYTGSLGEVMQESIQAALTVVRARAEKLGINPDFYEKRDIHVHVPEGATPKDGPSAGIAMCTALVSCLTGNPVRADVAMTGEITLRGQVLPIGGLKEKLLAAHRGGIKTVLIPFENKRDLEEIPDNVIADLDIHPVKRIEEVLTLALQNEPSGMQVVTAK
notes: Lon protease, Escherichia coli, UniProt P0A9M0, residues 253-784 (lacks the NTD and the collar); Tags and their cleavage follow from 'produced as described for full-length EcLon'; also called EcLon truncation including residues 253 to 784; source: E. coli C41(DE3), purified, produced as described for full-length EcLon; not shown: His6, N-terminal, cleaved; SUMO, N-terminal, cleaved

Key:
[1] = target: the molecule itself; experiment: electron microscopy on grids; purified EcLon on EM grids
[2] = target: the molecule itself; experiment: SEC + other: negative staining electron microscopy; Superose 6 Increase 10/300 GL in buffer A (50 mM Tris/HCl, 200 mM NaCl, pH 8.0); oligomer size by column calibration, verified by negative staining EM

Protein | stoichiometry N [1] | stoichiometry N [2]
B1 | 6 and 12 | 
B2 |  | 6
B3 |  | 6
